US20260049134A1 (UNIVERSITY OF FLORIDA RESEARCH FOUNDATION, published 2026)

T1: DCC
T1 construct: coated protein in the ELISA; also called DCC-His (R&D Systems)
T1 chain: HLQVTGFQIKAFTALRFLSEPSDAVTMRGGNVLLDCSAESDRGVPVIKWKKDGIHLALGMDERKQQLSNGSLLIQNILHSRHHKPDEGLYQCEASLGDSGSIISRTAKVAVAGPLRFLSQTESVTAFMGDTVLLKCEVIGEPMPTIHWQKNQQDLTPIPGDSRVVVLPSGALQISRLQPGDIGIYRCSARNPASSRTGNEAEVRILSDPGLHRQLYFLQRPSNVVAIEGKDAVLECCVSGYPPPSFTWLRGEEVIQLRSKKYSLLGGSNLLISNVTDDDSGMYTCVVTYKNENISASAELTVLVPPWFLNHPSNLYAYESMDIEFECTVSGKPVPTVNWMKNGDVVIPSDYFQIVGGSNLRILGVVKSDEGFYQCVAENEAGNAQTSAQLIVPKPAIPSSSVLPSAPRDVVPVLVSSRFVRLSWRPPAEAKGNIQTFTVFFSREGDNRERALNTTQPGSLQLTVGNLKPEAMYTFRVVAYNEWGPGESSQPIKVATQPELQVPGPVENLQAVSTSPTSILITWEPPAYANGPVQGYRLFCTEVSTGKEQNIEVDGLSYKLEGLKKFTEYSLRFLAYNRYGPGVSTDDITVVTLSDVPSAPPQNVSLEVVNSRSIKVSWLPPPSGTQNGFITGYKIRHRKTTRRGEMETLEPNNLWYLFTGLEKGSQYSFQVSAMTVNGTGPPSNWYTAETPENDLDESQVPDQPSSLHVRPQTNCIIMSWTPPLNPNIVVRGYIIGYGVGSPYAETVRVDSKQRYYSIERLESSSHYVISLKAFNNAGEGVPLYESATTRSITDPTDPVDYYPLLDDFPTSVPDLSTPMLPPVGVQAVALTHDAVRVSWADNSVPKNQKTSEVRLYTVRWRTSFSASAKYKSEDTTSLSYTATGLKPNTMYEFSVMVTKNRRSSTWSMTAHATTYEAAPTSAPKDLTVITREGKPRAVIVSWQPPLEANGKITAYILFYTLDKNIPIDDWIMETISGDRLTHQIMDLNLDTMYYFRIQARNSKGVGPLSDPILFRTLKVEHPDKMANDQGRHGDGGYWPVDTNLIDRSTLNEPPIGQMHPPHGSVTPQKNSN

T2: GARS-His (Sino Biological) (human, UniProt P41250 37-739, limits assumed)
T2 construct: Bought; also called GARS1; glycyl-tRNA synthetase; not shown: His tag of the bought protein
T2 sequence: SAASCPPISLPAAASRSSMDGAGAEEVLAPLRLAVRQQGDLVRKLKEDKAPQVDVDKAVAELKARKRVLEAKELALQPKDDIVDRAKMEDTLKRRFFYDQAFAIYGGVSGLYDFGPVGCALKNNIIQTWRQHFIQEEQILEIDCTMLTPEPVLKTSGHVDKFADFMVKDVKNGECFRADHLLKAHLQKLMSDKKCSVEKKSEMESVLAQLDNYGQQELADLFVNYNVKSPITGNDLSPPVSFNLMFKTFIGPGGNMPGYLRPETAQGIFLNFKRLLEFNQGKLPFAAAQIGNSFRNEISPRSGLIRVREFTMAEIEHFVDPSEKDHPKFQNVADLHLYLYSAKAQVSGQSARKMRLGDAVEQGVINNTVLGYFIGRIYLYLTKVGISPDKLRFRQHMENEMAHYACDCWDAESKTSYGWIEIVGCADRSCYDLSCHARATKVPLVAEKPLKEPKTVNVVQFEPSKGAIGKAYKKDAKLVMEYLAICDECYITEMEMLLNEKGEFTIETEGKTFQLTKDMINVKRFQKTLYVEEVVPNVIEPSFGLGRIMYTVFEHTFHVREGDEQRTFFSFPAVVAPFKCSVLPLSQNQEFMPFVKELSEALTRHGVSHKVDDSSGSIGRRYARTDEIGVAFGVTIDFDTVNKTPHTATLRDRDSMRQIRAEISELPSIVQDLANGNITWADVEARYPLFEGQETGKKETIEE

T3: IL13RA1
T3 construct: coated protein in the ELISA; also called IL13RA1-Fc-His (R&D Systems)
T3 chain: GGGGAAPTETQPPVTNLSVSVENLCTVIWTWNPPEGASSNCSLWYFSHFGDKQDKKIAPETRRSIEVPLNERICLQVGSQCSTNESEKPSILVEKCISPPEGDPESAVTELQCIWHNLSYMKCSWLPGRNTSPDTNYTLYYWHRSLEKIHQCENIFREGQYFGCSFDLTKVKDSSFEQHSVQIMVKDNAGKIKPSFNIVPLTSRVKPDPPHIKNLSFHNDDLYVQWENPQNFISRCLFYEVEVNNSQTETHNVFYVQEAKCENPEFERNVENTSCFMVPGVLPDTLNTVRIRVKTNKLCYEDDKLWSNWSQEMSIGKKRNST


What was measured:
DCC [1] = target: T1, DCC; assay: ELISA on coated DCC-His
Method: (§1) Recombinant purified ECDs (50-150 ng) of each putative target protein were coated, incubated with 150 ng of the indicated primary antibody, and binding was detected using a peroxidase-conjugated anti-human Fab secondary antibody. Heatmap represents averages of technical triplicates. (8B) Target validation via siRNA knockdown. H929 cells were transfected with siRNA pools targeting the putative antibody targets ICAM1, CADM1, and PTPRG. Cells were then subjected to cognate IgG binding analysis via flow cytometry. (NT, non-targeting siRNA).
(§2) ELISA ELISA was conducted as described previously. Briefly, 50-150 ng of antigen was coated overnight in half-area 96-well plates at 4° C., blocked with 3% BSA at 37° C. for 1 h, and 150 ng of chimeric rabbit/human IgG1 was added, incubating for 2 h at 37° C. […] After incubating at 37° C. for 15 min-1 h (depending on intensity of controls), data were acquired using a SpectraMax M5 plate reader (Molecular Devices).

DCC [2] = target: T1, DCC; assay: ELISA on coated DCC-His, 150 ng IgG1; None 0.095
Method: as §1, §2

[3] = target: T2, GARS-His (Sino Biological); assay: ELISA on coated GARS-His, 150 ng IgG1; None 0.099
Method: as §1, §2

IL13RA1 = target: T3, IL13RA1; assay: ELISA on coated IL13RA1-Fc-His, 150 ng IgG1; None 0.094
Method: as §1, §2

Binder	binding result (DCC [1])	ELISA Absorbance (405 nm-570 nm) (DCC [2])	ELISA Absorbance (405 nm-570 nm) [3]	ELISA Absorbance (405 nm-570 nm) (IL13RA1)
TH9-0022 (antibody, human IgG1, kappa, L234A L235A, V domains shown, also called TH9-022; negative control) VH: QSLEESGGRLVTPGTPLTLTCTVSGFSLSSYAMNWVRQAPGKGLEWIGIINSYGSTYYASWAKGRFTISKTSTTVDLKITSPTTEDTATYFCARVTYDSYGYGYAPYGMDLWGPGTLVTVSS VL: LVMTQTPSSTSNAVGGTVTIKCQASQSIGNVLAWYQQKPGQPPKLLIYAASTLASGVPSRVGGSRSGTEYTLTISGVQREDAATYYCLGSDSDSDIAFGGGTELEILR	no binding (tested: 150 ng IgG1 per well)	0.079	0.098	0.08
HW-42 chimeric rabbit-human IgG1 LA/LA/PG (antibody, V domains shown, Fc-silenced (L234A/L235A/P329G) IgG1, lambda; Alexa Fluor 647-labeled in single-step flow cytometry; Cluster C-1) VH: QSVKESEGGLFKPADTLTLTCTVSGFSLSSNEISWVRQAPGEGLEYIGIIDTGGRAYYAVWARSRSTITRNTNLNTVTLKMTSLTAADTATYFCARGGVDTEWYAFSSWGPGTLVTVPS VL: SFVLTQPASVQVNLGQTVSLTCTADTLSRRYASWYQQKPGQAPVLLIFRDTSRPSGVPDRFSGSSSGDTATLTISGAQAGDEADYYCATSDGSGSNYQYVFGGGTQLTVTG	no binding (tested: 150 ng IgG1 per well)	0.098	0.099	0.102
HW-1 chimeric rabbit-human IgG1 LA/LA/PG (antibody, V domains shown, Fc-silenced (L234A/L235A/P329G) IgG1, lambda; Alexa Fluor 647-labeled in single-step flow cytometry; Prototype of cluster C-1) VH: QSLEESGGGLFKPTDTLTLTCTASGFSLGSSYAISWVRQAPGKELEWIGTIDSGRAYYARWAKSRSTITRNTNENTVTLKMTSLTAADTATYFCARDLIPTYSQDIWGPGTLVTISS VL: SFVLTQPASVQVNLGQTVSLTCTADTLSRRYASWYQQKPGQAPVLLIYRDTSRPSGVPDRFSGSSSGNTATLTISGAQAGDEADYYCATSDGSGNSYQYVFGGGTQLTVTS	no binding (tested: 150 ng IgG1 per well)	0.068	0.091	0.08
HW-70 chimeric rabbit-human IgG1 LA/LA/PG (antibody, V domains shown, Fc-silenced (L234A/L235A/P329G) IgG1, lambda; Alexa Fluor 647-labeled in single-step flow cytometry; Cluster C-1) VH: QSLEESGGRLVTPGTPLTLTCTVSGFSLSSNAMSWVRQAPGKGLEWIGTIDGYGYTYYASWAKGRFTVSKTSTTVDLKITSPTTEDTATYFCAREIYLGSNFWGPGTLVTISS VL: SFVLTQPASVQVNLGQTVSLTCTADTLSRRYASWYQQKPGQAPVLLIYRDTSRPSGVPDRFSGSSSGNTATLTISGAQAGDEADYYCATADGSGSSYQFVFGGGTQLTVTG	no binding (tested: 150 ng IgG1 per well)	0.086	0.087	0.085
HW-25 chimeric rabbit-human IgG1 LA/LA/PG (antibody, V domains shown, Fc-silenced (L234A/L235A/P329G) IgG1, lambda; Alexa Fluor 647-labeled in single-step flow cytometry; Cluster C-1) VH: QSLEESGGRLVTPGTPLTLTCTVSGFSLSSYAMGWVRQAPGKGLEWIGIIDSRGSTYYATWAKGRFTISKTSTTVDLKITSPTTEDTATYFCAREDSYYYDSFNLWGPGTLVTVSS VL: SFVLTQPASVQVNLGQTVSLTCTADTLSRRYASWYQQKPGQAPVLLIYRDTSRPSGVPDRFSGSSSGNTATLTISGAQAGDEADYYCATSDGSGSSYQCVFGGGTQLTVTG	no binding (tested: 150 ng IgG1 per well)	0.063	0.103	0.074
HW-17 chimeric rabbit-human IgG1 LA/LA/PG (antibody, V domains shown, Fc-silenced (L234A/L235A/P329G) IgG1, lambda; Alexa Fluor 647-labeled in single-step flow cytometry; Cluster C-1) VH: QSLGESRGRLVTPDETLTLTCTVSGIDLSSNAMSWVRQAPGEGLEWIGTINTGGRAYYASWAKGRFTISRTSTTVDLKMTSLTTEDTATYFCARERYSDGRAYDIWGPGTLVTISS VL: SFVLTQPASVQVNLGQTVSLTCTADTLSRRYASWYQQKPGQAPVLLIYTDSNRPSGIPDRFSGSSSGNTATLTISGAQAGDEADYYCATDDGSGSIYQYVFGGGTQLTVTG	no binding (tested: 150 ng IgG1 per well)	0.077	0.074	0.073
HW-45 chimeric rabbit-human IgG1 LA/LA/PG (antibody, V domains shown, Fc-silenced (L234A/L235A/P329G) IgG1, lambda; Alexa Fluor 647-labeled in single-step flow cytometry; Prototype of cluster C-45) VH: QKQLVESGGRLVTPGTPLTLTCTVSGFSLSSYAMGWFRQAPGKGLEWIGIINSYGSTYYASWAKGRFTISKTSTTVDLKITSPTTEDTATYFCGRRIGSARFDPWGPGTLVTVSS VL: SFVLTQPASVQVNLGQTVSLTCTADTLSRSYASWYQQKPGQAPVLLIYRDTRRPSGVPDRFSGSSSGNTATLTISGAQAGDEADYYCATSDGSGSSYRLVFGGGTQLTVTG			0.741	
HW-28 chimeric rabbit-human IgG1 LA/LA/PG (antibody, V domains shown, Fc-silenced (L234A/L235A/P329G) IgG1, lambda; Alexa Fluor 647-labeled in single-step flow cytometry; Cluster C-45) VH: QKQLVESGGRLVTPGTPLTLTCTASGFSLSSNAMSWVRQAPGEGLQWIGTISSGGSTYYASWAKGRFTISKTSTTVTLKMTSLTTEDTATYFCARGADLHRLWGPGTLVTVSS VL: SFVLTQPASVQVNLGQTVSLTCTGKPLSRSFASWYQQKPGQAPVLVIYRDTSRPSGVPDRFSGSSSGNTATLTISGAQAGDEADYYCATSDGSGSSYQYVFGGGTQLTVTG		0.128	0.628	
HW-16 chimeric rabbit-human IgG1 LA/LA/PG (antibody, V domains shown, Fc-silenced (L234A/L235A/P329G) IgG1, kappa; Alexa Fluor 647-labeled in single-step flow cytometry; Cluster C-45) VH: QSLEESGGRLVTPGTPLTLTCTASGFSLSSYAMSWVRQAPGKGLEWIGTMPTGGGTYYASWAKGRFTISKTSTTVDLQITSPTTEDTATYFCAKHWNIWGPGTLVTISS VL: DIVLTQTPSSTSTAVGDTVTINCRASQSIGRNLAWFQQKPGQPPKLLIYRASNLASGVPSRFKGSGSRTQFTLTISGVQREDAATYYCLGSYSSSDTAFGGGTELEILR		0.129	0.718	0.163
